Experimental data published in publication PMC9411612, “Single residue modulators of amyloid formation in the N-terminal P1-region of α-synuclein” (Nature Communications, 2022).

B1: P1-peptide (Ac-KTKE-GVLYVGS-KTKE-NH2) (peptide)
peptide: Ac-KTKEGVLYVGSKTKE-NH2
notes: also called peptide-P1; peptide P1; source: synthetic peptide, bought: Severn Biotech Ltd
B2: MTSL-labelled Cys-P1-peptide (Ac-C-KTKE-GVLYVGS-KTKE-NH2) (peptide)
peptide: CKTKEGVLYVGSKTKE
modifications: N-terminal acetylation; MTSL on the thiol group of the introduced N-terminal cysteine; C-terminal amidation
notes: cysteine introduced at the N-terminus for MTSL labelling; observed mass 1995.07 Da after labelling; also called MTSL-labelled peptide-P1; 14N P1-peptide N-terminally labelled with MTSL; source: synthetic peptide, bought: Severn Biotech Ltd; labelled with MTSL, reverse phase HPLC

Legend:
[1] = biological target: T1, ΔP1 αSyn (alpha-synuclein with residues 36-42 deleted) (UniProt P37840 1-140, deletion of the seven-residue P1 sequence 36GVLYVGS42 (ΔP1)); experiment: cell-based or functional assay
[2] = biological target: T1, ΔP1 αSyn (alpha-synuclein with residues …); experiment: native MS; native nESI-MS; 20 µM protein, αSyn:P1-peptide 1:10, 20 mM ammonium acetate pH 7.5; conditions: both partners purified
[3] = biological target: T2, wild-type alpha-synuclein (WT αSyn) (UniProt P37840 1-140); experiment: as above; conditions: both partners purified
[4] = biological target: T1, ΔP1 αSyn (alpha-synuclein with residues …); experiment: NMR paramagnetic relaxation enhancement (PRE); 100 µM 15N-labelled protein with 100 µM 14N MTSL-labelled peptide; diamagnetic spectra after 1 mM ascorbic acid; 20 mM Tris-HCl, pH 7.5, 200 mM NaCl, 15 °C; conditions: both partners purified
[5] = biological target: T2, wild-type alpha-synuclein (WT αSyn); experiment: as above; conditions: both partners purified

t50 of amyloid formation (ThT fluorescence), 100 µM ΔP1 with P1-peptide in 10-fold molar excess, pH 7.5 (aggregation begins within 110 h at equimolar ratio) [1] | stoichiometry N [2] | stoichiometry N [3] | binding result [4] | binding result [5] | Binder
14.4 h | 1 | 1 |  |  | B1
 |  |  | binds | binds | B2
